± gives the standard deviation.
Assay: protein stability index of a GFP-peptide fusion (GPS, HEK-293T) (PSI 1-6); higher = more stable
[1] = treatment: DMSO, c terminus: a fixed tail appended
[2] = treatment: MLN4924 1 uM, 8 h, c terminus: a fixed tail appended
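Also: 24-mer peptide tiles fused after GFP, lentivirally expressed, FACS-sorted into six equal bins by GFP/DsRed ratio, decoded by Illumina sequencing, PSI is the read-weighted mean bin number.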

| Sequence | protein stability index [1] | protein stability index [2] | protein stability index (treatment: DMSO, c terminus: native) | protein stability index (treatment: MLN4924 1 uM, 8 h, c terminus: native) |
| --- | --- | --- | --- | --- |
| FENGQKAAVVHHFESFPAGSTLIF [TOR1AIP2] | 2.05 ± 0.42 | 2.12 ± 0.2 | – | – |
| PLGLEVDQFLEDVRLQERTSGGLL [NOP53] | 4.42 ± 0.14 | 4.47 ± 0.12 | – | – |
| YHRRHNPKTNEDFEFLYNALEFWR [IQUB] | 1.86 ± 0.36 | 2.61 ± 0.82 | – | – |
| PVKELAALPKATILDLSCNKLTTL [LRRC59] | 3.26 ± 0.1 | 3.43 ± 0.35 | – | – |
| QLDREAQARHQLVLTAVDGGTPAR [PCDHGC5] | 4.59 ± 0.1 | 4.76 ± 0.18 | – | – |
| STNDKTVKLWKVSERDKRPEGYNL [PPP2R2B] | 3.93 ± 0.12 | 4.19 ± 0.14 | – | – |
| TGIEYIVAQGPTNQGLNVMVWNQN [ADAMTSL2] | 2.175 ± 0.019 | 2.1 ± 0.24 | – | – |
| KEDASEFQILKYLFQIDVYDFMNS [MIA2] | 2.5 ± 0.65 | 2.76 ± 0.24 | – | – |
| FSTGIKMGQHISLAPIHKLEEALY [MNAT1] | 2.28 ± 0.48 | 2.08 ± 0.26 | – | – |
| LESVNHCHLNGIVHRDLKPENLLL [CAMK2D] | 2.85 ± 0.34 | 2.98 ± 0.41 | – | – |
| LWRSRVVPDREEGGSGGGGGGDED [SMAD6] | 5.36 ± 0.29 | 5.45 ± 0.14 | – | – |
| MPEFSSDSTMRILSNLVQHILKKY [RTP4] | 2.2 ± 0.39 | 2.52 ± 0.31 | – | – |
| PLRAVHINLEEKEKQIRSFLIEGP [PLEKHN1] | 3.7 ± 0.31 | 3.8 ± 0.2 | – | – |
| EAGNEFKNIFGTPEFVAPEIVNYE [DAPK3] | 4.02 ± 0.1 | 4.66 ± 0.1 | – | – |
| VQELLPAACLLQLKGVKQACCEFL [KLHL12] | 2.27 ± 0.28 | 1.81 ± 0.37 | – | – |
| GGQDSFESIESYDSCDRLTQSWSS [ETS1] | 3.68 ± 0.67 | 3.84 ± 0.3 | – | – |
| NSNTPVDDFHTNDVCSFPNALVTK [FEM1B] | 4.68 ± 0.26 | 4.5 ± 0.18 | – | – |
| IPEGLNYSENAPFHLSLFQGWMNL [PLD5] | 2.2 ± 0.55 | 1.91 ± 0.38 | – | – |
| SLEKLLASEPLPWDLRFRIIHETA [RIPK4] | 2.18 ± 0.33 | 2.31 ± 0.33 | – | – |
| TNCQKVLNMWCCCFFKRRKRKTIQ [CSNK1G3] | 4.01 ± 0.26 | 3.77 ± 0.21 | – | – |
| DQDGEYCPEVKLKTTGLEEAAEAE [SRPK2] | 5.63 ± 0.3 | 5.81 ± 0.18 | – | – |
| PYYLRSFLVVLKTVLENEDDMLLF [FAN1] | 2.27 ± 0.36 | 2.26 ± 0.25 | – | – |
| AYTHGCILHPELTVDSMIPAYATT [GDAP1] | 2.65 ± 0.15 | 2.76 ± 0.063 | – | – |

| Sequence | protein stability index [1] | protein stability index [2] | protein stability index (treatment: DMSO, c terminus: native) | protein stability index (treatment: MLN4924 1 uM, 8 h, c terminus: native) |
| --- | --- | --- | --- | --- |
| GRDGYDYDGYRLRVEFPRSGRGTG [SRSF1] | 3.17 ± 0.37 | 3.26 ± 0.36 | – | – |
| LGLLDDYLEVAKHFKPHGFSSDKA [ATF4] | 2.89 ± 0.19 | 3.07 ± 0.91 | – | – |
| DHSEHLSGSSYRDALQRYGTSHGA [RBMY1A1] | 3.89 ± 0.12 | 4.37 ± 0.38 | – | – |
| YIIQQGGWGTVFSLESEEEEYPGI [BCL2L13] | 2.46 ± 0.36 | 2.9 ± 0.36 | – | – |
| FVGAGRMAGAIAQGLIRAGKVEAQ [PYCR3] | 2.96 ± 0.52 | 2.9 ± 0.33 | – | – |
| SEPYKLLPGAVATIVKPLSAIPQP [HNF4A] | 3.44 ± 0.3 | 3.59 ± 0.16 | – | – |
| EEITEESLEESVGKPLYLIFRNLC [INTS3] | 2.79 ± 0.58 | 2.88 ± 0.38 | – | – |
| GWRSLWLGWGPTALRDVPFSALYW [SLC25A39] | 2.22 ± 0.41 | 2.99 ± 0.76 | – | – |
| AVQLRHAWNPEDRSLNVFVKDDDR [SPSB4] | 4.21 ± 0.25 | 4.24 ± 0.26 | – | – |
| KEKCVSLPDCCHGSELRDFPGRPM [DLC1] | 3.82 ± 0.33 | 3.76 ± 0.4 | – | – |
| LTKLREMGREKCHQYWPAERSARY [PTPRD] | 2.33 ± 0.21 | 2.9 ± 0.45 | – | – |
| LSLGLATVDIQNPDITSSRYRGLP [WAS] | 2.96 ± 0.25 | 3.12 ± 0.22 | – | – |
| PCSEFMEPSSDPSLLGEPCAGPGF [SPAG8] | 4.15 ± 0.25 | 4.44 ± 0.28 | – | – |
| IGHFNTASGVGFILGPVVGGYLTE [MFSD9] | 2.38 ± 0.53 | 2.31 ± 0.39 | – | – |
| MVTCKSEFYHDEFKRWIYLNDQNL [GAN] | 2.44 ± 0.43 | 2.25 ± 0.48 | – | – |
| SGRHPSHSTTPSGPGDEVARGIAG [ARFIP2] | 4.81 ± 0.13 | 4.62 ± 0.22 | – | – |
| SPSPMSHGHYSMHCLHSAGHSQPD [DLX1] | 3.82 ± 0.18 | 3.91 ± 0.21 | – | – |
| LRLENNHCHIEESEHVLKKAHKYS [VPS39] | 2.87 ± 0.37 | 3.31 ± 0.45 | – | – |
| LTLSQYILLDPILMFFIMAAMLSM [POMT2] | 3.29 ± 0.56 | 2.95 ± 0.69 | – | – |
| GFGILGHSQNLAKQQRNEVSFVIH [SEPHS2] | 2.25 ± 0.47 | 2.32 ± 0.32 | – | – |
| PDFILKVVIDKHPVRFFVHKRPHV [CTDNEP1] | 2.46 ± 0.56 | 2.44 ± 0.76 | – | – |
| SAPPTSRTSSGNVWVTHEEMETLE [PPFIA4] | 5.12 ± 0.29 | 4.88 ± 0.39 | – | – |
| DLNRHLDEMCANNDFVQVDPGQVG [FAN1] | 4.29 ± 0.4 | 4.63 ± 0.058 | – | – |

| Sequence | protein stability index [1] | protein stability index [2] | protein stability index (treatment: DMSO, c terminus: native) | protein stability index (treatment: MLN4924 1 uM, 8 h, c terminus: native) |
| --- | --- | --- | --- | --- |
| KQGSMNFRFIPVLFPNAKKEHVPT [TRAF3IP2] | 2.41 ± 0.41 | 2.48 ± 0.49 | – | – |
| EYVLLKALALANSDSVHIEDAEAV [ESRRA] | 3.36 ± 0.33 | 3.55 ± 0.37 | – | – |
| MCEQCDVFYCDPCRLRCHPPRGPL [TRIM9] | 2.8 ± 0.32 | 2.72 ± 0.35 | – | – |
| PQEESEESNVSMASLGEKRDHHST [CHGB] | 5.59 ± 0.37 | 5.58 ± 0.16 | – | – |
| DAFVKIVRHEGTRTLWSGLPATLV [SLC25A39] | 2.6 ± 0.61 | 2.03 ± 0.22 | – | – |
| QIPVTDSGRHILEDSCAELGESKE [SDE2] | 5.35 ± 0.12 | 5.19 ± 0.38 | – | – |
| NALKDARAKLDELEGALHQAKEEL [KRT71] | 5.06 ± 0.38 | 4.97 ± 0.095 | – | – |
| PQDGSYPRQADHDDHECCERVVIN [KCNA1] | 5.22 ± 0.41 | 5.18 ± 0.34 | – | – |
| ALLADEERCLSCILAQQPDRLRDE [TRADD] | 4.28 ± 0.2 | 4.3 ± 0.12 | – | – |
| ASGLTGFIGLEVVAQLFNCMVGLL [ATL3] | 2.26 ± 0.16 | 2.15 ± 0.1 | – | – |
| VPVPPAAAPPPPATPIVPVVPPTP [BRD3] | 4.75 ± 0.43 | 4.75 ± 0.16 | – | – |
| MKNKNNVTEFILLGLTQNPEGQKV [OR4A15] | 2.44 ± 0.31 | 2.99 ± 0.11 | – | – |
| PHQPVTAITRVSDRFSGETSAAAL [SMTNL2] | 4.32 ± 0.39 | 4.32 ± 0.17 | – | – |
| EIIELRRTVNALEIELQAQHNLRD [KRT34] | 2.89 ± 0.36 | 3.03 ± 0.22 | – | – |
| ALVGCVISDNPERYSTNLSNHVDD [EDNRA] | 3.94 ± 0.44 | 4.16 ± 0.16 | – | – |
| VLCGVVMDRSLVQDAPLSDCTETI [ADD1] | 3.11 ± 0.27 | 2.99 ± 0.41 | – | – |
| MAVTGWLESLRTAQKTALLQDGRR [DPCD] | 2.51 ± 0.14 | 2.68 ± 0.17 | – | – |
| AEDLRMLDASGEKMNGSHRDQGSS [IKZF1] | 5.18 ± 0.43 | 5.34 ± 0.23 | – | – |
| FLSYYRLTRFLSRVIKCDPDCLRA [CCND1] | 2.23 ± 0.56 | 2.25 ± 0.54 | – | – |
| ERSRGRSISRGRHARTHPQTALLE [MATN2] | 4.31 ± 0.53 | 4.72 ± 0.3 | – | – |
| QEGSSGMELSWGQSPGQPVQGGSE [TEX19] | 5.28 ± 0.26 | 5.29 ± 0.51 | – | – |
| PRMLRESGHGDAHLQEYAGNFQGI [FATE1] | 4 ± 0.24 | 4.22 ± 0.13 | – | – |
| EVEVVEEAKCCCFFKRKRKKTAQR [CSNK1G1] | 4.4 ± 0.41 | 4.45 ± 0.12 | – | – |

| Sequence | protein stability index [1] | protein stability index [2] | protein stability index (treatment: DMSO, c terminus: native) | protein stability index (treatment: MLN4924 1 uM, 8 h, c terminus: native) |
| --- | --- | --- | --- | --- |
| VDLVDESGYVSGYKHAGTYDQKVQ [TPPP] | 4.04 ± 0.32 | 4.01 ± 0.17 | – | – |
| PGRPRTDGENVFTGQSKIYSYMSP [KMT5A] | 3.4 ± 0.39 | 3.58 ± 0.23 | – | – |
| SERDKRPEGYNLKDEEGRLRDPAT [PPP2R2B] | 5.6 ± 0.29 | 5.4 ± 0.18 | – | – |
| ADKMTAEEVDQMFQFASIDVAGNL [MYL5] | 4.35 ± 0.41 | 4.47 ± 0.2 | – | – |
| EALGFSWHDTCFVCAICQINLEGK [PDLIM7] | 2.48 ± 0.82 | 1.63 ± 0.26 | – | – |
| GGGREPQGLAEKSPLQTIGEEQTQ [WDR41] | 5.31 ± 0.26 | 5.58 ± 0.17 | – | – |
| PFNQSTFNNVVEQNFKNRESYPED [DLC1] | 4.62 ± 0.14 | 4.66 ± 0.16 | – | – |
| KDFLTGMCLFLQSLRQKQPERLCS [GMPPB] | 2.25 ± 0.44 | 2.23 ± 0.36 | – | – |
| LQGDLKTLMGKLKLKNTVTIQQEK [SASS6] | – | 2.81 ± 0.25 | – | – |
| KPEDTAEDLTAKRKRMKMDKTCSK [FAM9B] | 5.3 ± 0.2 | 5.43 ± 0.11 | – | – |
| RTYGEPESAGPSRAVRQSVTSFPD [EMD] | 4.92 ± 0.24 | 4.94 ± 0.14 | – | – |
| LPPSMERGYPPPRDSYSSSSRGAP [RBMX] | 4.5 ± 0.17 | 4.53 ± 0.2 | – | – |
| LKASEPGLFAVGEHTGEVRTARAL [PCDHGA10] | 4.06 ± 0.35 | 4.21 ± 0.16 | – | – |
| LLFCCQCVDVVFYNPDLKKVVEAH [RHOBTB3] | 2.4 ± 0.14 | 3.01 ± 0.52 | – | – |
| KILEVVGRYSVHNAGISFSVKKQG [MLH1] | 2.19 ± 0.93 | 1.91 ± 0.51 | – | – |
| LPTTKMAQTNPTPGSLGPWKITIY [CRYBA1] | 2.71 ± 0.48 | 2.19 ± 0.49 | – | – |
| SCFLINTADRIIRVYDGREILTCG [RBBP5] | 1.91 ± 0.098 | 1.91 ± 0.27 | – | – |
| LCLLVAWSIVGMAVVKGIQSSGKV [SLC6A17] | 2.76 ± 0.49 | 2.84 ± 0.21 | – | – |
| LSSRWKNWWIRGILTLTMISLFFL [CDS1] | 2.54 ± 0.37 | 2.17 ± 0.36 | – | – |
| DDPATLGPHLGLRGVPQSTAASS [DYRK1B] | – | – | 3.28 ± 0.28 | 3.29 ± 0.085 |

From the supplement of paper PMC10567573
